Measured values published in article PMC7738837, “Synthesis and evaluation of ^68Ga-labeled dimeric cNGR peptide for PET imaging of CD13 expression with ovarian cancer xenograft” (Journal of Cancer, 2021).
Like-named read-outs stand apart in the source and are kept apart here. Positions of bridges follow the written chain, without caps; N, C: chain ends. Non-standard residues stand in square brackets, D forms with d. Residues, ends and D or L forms follow the SMILES beside them. Chains are numbered I, II in the order given. *: point of attachment. DOTA = O=C(O)CN1CCN(CC(=O)O)CCN(CC(=O)*)CCN(CC(=O)O)CC1; PEG4 = NCCOCCOCCOCCOCCC(=O)O

Assays:
[1] = test system: SKOV3 cells; test: In vitro cell binding/uptake assay, SKOV3 cells; assay type: cell-based, human; conditions: 37 KBq per well, 1×10^6 cells/well, 37°C, time points 5 min to 2 h, gamma counter, mean ± SD
[2] = in vivo; conditions: female, BALB/c nude, mouse, iv, 7.4 MBq, total radioactivity
Experimental: (§1) The human OVCA ES2 and SKOV3 cells were obtained from Nanjing Keygen Biotech Co., Ltd. (Nanjing, China). ES2 cells were maintained as monolayer cultures in McCoy's medium 5A supplemented with 10% fetal bovine serum (FBS), and SKOV3 cells were cultured in RPMI-1640 medium supplemented with 10% FBS. Both cell lines were incubated at 37°C in a humidified atmosphere containing 5% CO2. Cells in log phase were harvested by trypsinization, washed with PBS twice and adjusted to 5×10^7/mL in PBS. A volume of 0.1 mL single-cell suspension was subcutaneously injected into the front flank of each female […] nude mouse (~4-6 weeks old, body weight of 18-25 g; Slac Laboratory Animal, Shanghai, China). Animal models were used for PET imaging experiments when xenografts grew to 500-1,000 mm^3. All animal-related studies were approved by the Institutional Animal Care and Use Committee of Soochow University.
(§2) Two groups of female Balb/c nude mice (n=6/group) bearing ES2 tumors were used to conduct static microPET imaging with an Inveon microPET scanner (Siemens Medical Solutions, Erlangen, Germany). The first group was injected with 7.4 MBq ^68Ga-DOTA-c(NGR)2 via tail vein under anesthesia with 1%-2% isoflurane, and a series of static image data, 10 min for each time point, were collected at 30 min, 1, 1.5, and 2 h post injection. For blocking studies, the second group of mice was injected with 100 μg unlabeled peptide in 100 μL saline via tail vein, immediately followed by administration of ^68Ga-DOTA-c(NGR)2, and then images were acquired at 30 min, 1, 1.5 and 2 h post-injection, each for 10 min. The obtained images were processed using Siemens Inveon Research Workplace 4.0 (IRW 4.0) and reconstructed using three-dimensional ordered-subset expectation maximization. Regions of interest (ROIs) were drawn over the tumor (T) and muscle of the contralateral forelimb, and the latter served as the background (B). Moreover, %ID/g of tumors and the T/B ratio were determined. The same studies were repeated in female Balb/c nude mice bearing SKOV3 tumors without the blocking experiments.

[3] = test system: ES2 cells; test: In vitro cell binding/uptake assay, ES2 cells; assay type: cell-based, human; conditions: 37 KBq per well, 37°C
[4] = In vitro stability in saline/PBS at room temperature (radiochemical purity); assay type: physicochemical; conditions: ~3.7 MBq tracer in saline (method: PBS), 3 h of incubation, radio-HPLC
Experimental: A volume of 80 μL 1 mol/L HEPES (pH 5.0) was added to 200 μL ^68GaCl3 (37-74 MBq) eluent, and then the mixture was incubated with 40 μL DOTA-c(NGR)2 stock solution in a water bath at 95°C for 10 min. Quality control was performed by radio-HPLC (Agilent Technologies, Santa Clara, CA, USA) with a VP-ODS C18 column (Shimadzu, Kyoto, Japan) and an online radioactivity detector (Zonkia Scientific Instruments Co., Ltd., Anhui Province, China). The mobile phase was composed of solvent A, 0.1% trifluoroacetic acid (TFA) in water, and solvent B, 0.1% TFA in acetronitrile. The flow rate was set at 1 mL/min, and the UV wavelength was set at 220 nm. The mobile phase was gradiently changed from 20% solvent B to 30% solvent B in 20 min.
To evaluate the in vitro stability, ~3.7 MBq of ^68Ga-DOTA-c(NGR)2 was incubated in phosphate-buffered saline (PBS) at room temperature or bovine serum at 37 °C, respectively. The radiochemical purity was determined at time points of 30 min and 1, 2 and 3 h.

[5] = in vivo; conditions: ICR, mouse, iv, 3.7 MBq, total radioactivity
Experimental: (§3) Biodistribution studies were performed using 30 normal ICR (Institute of Cancer Research) mice (18-30 g; age, 4 weeks). […] The blood, muscle and other organs of interest (brain, heart, liver, lungs, spleen, pancreas, kidneys, stomach, small intestine and femur) were immediately harvested, weighed and counted with a gamma counter. Data were normalized to the time of injection and expressed as percent injected dose per gram (% ID/g).

[6] = MicroPET imaging and blocking, ES2 tumor-bearing nude mice; conditions: female, BALB/c nude, mouse, in vivo, iv, total radioactivity
Experimental: as §1, §2

[7] = test system: normal ICR mice
Experimental: as §3

Structure (SMILES): N=C(N)NCCC[C@@H]1NC(=O)CNC(=O)[C@H](CC(N)=O)NC(=O)[C@@H](NC(=O)CCOCCOCCOCCOCCNC(=O)CC[C@H](NC(=O)CCOCCOCCOCCOCCNC(=O)CN2CCN(CC(=O)O)CCN(CC(=O)O)CCN(CC(=O)O)CC2)C(=O)NCCOCCOCCOCCOCCC(=O)N[C@H]2CSSC[C@@H](C(=O)N[C@@H](Cc3ccc(O)cc3)C(=O)O)NC(=O)[C@H](CCCNC(=N)N)NC(=O)CNC(=O)[C@H](CC(N)=O)NC2=O)CSSC[C@@H](C(=O)N[C@@H](Cc2ccc(O)cc2)C(=O)O)NC1=O [^68Ga-DOTA-c(NGR)2, metal not drawn] (I: {DOTA-PEG4}-E[PEG4]CNGRCY-OH / II: [PEG4]CNGRCY-OH; amide I:1-II:N; disulfide I:3-I:7, II:2-II:6)
- highest binding to SKOV3 cells [1]: 1.79% ± 0.34
- tissue to tissue ratio at 1 h [2]: 3.99 ± 0.18
- tissue to tissue ratio at 1.5 h [2]: 4.24 ± 0.73
- tissue uptake at 1 h [2]: 0.32 ± 0.03 %ID/g
- tissue uptake at 1.5 h [2]: 0.24 ± 0.05 %ID/g
- highest binding to ES2 cells ([3]; 1×10^6 cells/well, after 2 h of incubation, gamma counter, mean ± SD): 3.00% ± 0.59
- time to almost saturated binding to ES2 cells [3]: ≤ 30 min
- radiochemical purity after incubation in saline [4]: > 96%
- tissue uptake at 5 min ([5]; blood): 7.44 ± 1.64 %ID/g
- tissue uptake at 1 h ([5]; blood): 0.31 ± 0.05 %ID/g
- tissue uptake at 5 min ([5]; kidney): 16.7 ± 5.8 %ID/g
- tissue uptake at 1 h ([6]; 7.4 MBq): 0.62 ± 0.09 %ID/g
- tissue uptake at 1.5 h ([6]; 7.4 MBq): 0.53 ± 0.08 %ID/g
- tissue to tissue ratio at 1 h [6]: 10.3 ± 0.26
- tissue to tissue ratio at 1.5 h [6]: 8.04 ± 1.75
- tissue uptake at 1 h ([6]; microPET, 100 μg unlabeled peptide i.v. immediately before tracer, 1 h post-injection, n=6, mean ± SD, read-out: uptake in ES2 tumors in the blocking experiment): 0.16 ± 0.03 %ID/g
- tissue uptake at 1.5 h ([6]; microPET, 100 μg unlabeled peptide i.v. immediately before tracer, 1.5 h post-injection, n=6, mean ± SD, read-out: uptake in ES2 tumors in the blocking experiment): 0.14 ± 0.02 %ID/g
- decrease of kidney uptake from peak ([7]; 30 min post-injection versus 5 min): more than 50%
- decrease of kidney uptake from peak ([7]; 120 min post-injection versus 5 min): > 85%
